Reference: publication PMC10953399, “Escherichia coli DNA repair helicase Lhr is also a uracil‐DNA glycosylase”

Target: LhrD1536A (Escherichia coli MG1655, UniProt P30015 1-1538, D1536A)
Assay: EMSA; 5 mM EDTA; 12.5-200 nM protein, 12.5 nM DNA; similar to Lhr; 20 mM Tris pH 7.5, 10% glycerol, 100 ug/mL BSA, 25 mM DTT, 5 mM EDTA, 12.5 nM Cy5-DNA; 37 C 20 min then ice 10 min; 5% acrylamide TBE gel
Details: protein: recombinant; tags: His6; label: 5' Cy5; single strand

TCGGATCCTCTAGACAGCTCCATGATCACTGGCACTGGTAGAATTCGGC (ssDNA) [Cy5-ssDNA (EMSA)]: binds.
